Assay results as given in patent US20180305450A1 (AstraZeneca / MedImmune, published 2018).
Where a chain is given by its changes, count along the chain named.

T1: recombinant biotinylated rat PAR2 extracellular residues 1-75, N-terminal AviTag, C-terminal Flag and poly … (rat, UniProt Q63645 26-75, not fully specified; biotin on the AviTag (enzymatic biotinylation))
T1 construct: range 1-75; not shown: N-terminal AviTag (Avidity LLC); C-terminal Flag and poly Histidine tags
T1 chain (looked up): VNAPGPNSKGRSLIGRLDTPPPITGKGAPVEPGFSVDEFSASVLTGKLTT

B1: PaB670099 scFv (scFv, V domains shown)
VH: EVQLLESGGGLVQPGGSLRLSCAASGFTFSSYAMNWVRQAPGKGLEWVSTISYHGSHISYHDSVHHRFTISRDNSKNTLYLQMNSLRAEDTAVYYCARINNDPMDVWGQGTLVTVSS
VL: SIELTQPPSVSVSPGQTASITCSGDNLGKKYVQWYQQKPGQSPVLVIYDDSNRPSGIPERFSGSNSGNTATLTISGTQAMDEADYYCQTWDGNPTTGETNVFGGGTKLTVL
notes: purified scFv
B2: Par0067 scFv (scFv, V domains shown)
VH: B1 VH with H54S, H57L, H61A, H65K, H66G
VL: B1 VL
notes: purified scFv, parent clone; also called ZZ15D2-D02
B3: PaB670104 scFv (scFv, V domains shown)
VH: B1 VH with H54S, H57L, H61A, H65K, H66G
VL: B1 VL with T89H, N93H, P94H, T95H
notes: purified scFv
B4: PaB670101 scFv (scFv, V domains shown)
VH: B1 VH with H54S, H57L, H61A, H65K, H66G, N100H, N101H, D102H, M104H, V106H
VL: B1 VL
notes: purified scFv; also called ZZ1ODO-H01
B5: PaB670108 scFv (scFv, V domains shown)
VH: B1 VH with H54S, H57L, H61A, H65K, H66G
VL: B1 VL with T89H, D91H, N93H, P94H, T95H
notes: purified scFv; also called ZZ1RD3-H03
B6: PaB670105 scFv (scFv, V domains shown)
VH: B1 VH with H54S, H57L, H61A, H65K, H66G
VL: B1 VL with T89H, D91H, T95H, T99H, V101H
notes: purified scFv; also called ZZ1RD0-D01
B7: PaB670103 scFv (scFv, V domains shown)
VH: B1 VH with H54S, H57L, H61A, H65K, H66G
VL: B1 VL with Q88H, N93H, P94H, V101H
notes: purified scFv; also called ZZ1RCX-C09
B8: PaB670102 scFv (scFv, V domains shown)
VH: B1 VH with H54S, H57L, H61A, H65K, H66G, N101H, V106H
VL: B1 VL
notes: purified scFv; also called ZZ1PXS-F08
B9: PaB670100 scFv (scFv, V domains shown)
VH: B1 VH with S56H, Y60H, H61A, D62H, S63H, H66G
VL: B1 VL
notes: purified scFv
B10: PaB670107 scFv (scFv, V domains shown)
VH: B1 VH with H54S, H57L, H61A, H65K, H66G
VL: B1 VL with Q88H, T89H, D91H, G92H, T96H, G97H
notes: purified scFv; also called ZZ1RD3-D09
B11: PaB670106 scFv (scFv, V domains shown)
VH: B1 VH with H54S, H57L, H61A, H65K, H66G
VL: B1 VL with Q88H, G92H, T95H, T96H, G97H, E98H, V101H
notes: purified scFv; also called ZZ1RD0-G02
B12: Par0067 Fab (Fab, V domains shown)
VH: B1 VH with H54S, H57L, H61A, H65K, H66G
VL: B1 VL
notes: Fab; also called ZZ15D2-D02
B13: PaB670128 Fab (Fab, V domains shown)
VH: B1 VH with S56H, H61A, V64H, N100H, N101H
VL: B1 VL
notes: Fab; also called ZZ1RUE-A01
B14: PaB670103 Fab (Fab, V domains shown)
VH: B1 VH with H54S, H57L, H61A, H65K, H66G
VL: B1 VL with Q88H, N93H, P94H, V101H
notes: Fab; also called ZZ1RCX-C09
B15: PaB670120 Fab (Fab, V domains shown)
VH: B1 VH with S56H, H61A, V64H, N101H
VL: B1 VL
notes: Fab; also called ZZ1RUC-C11

Target: T2, recombinant biotinylated human PAR2 extracellular domain (residues 1-75), N-terminal AviTag, C-terminal Flag … (human, UniProt P55085 26-75, biotin on the AviTag (enzymatic biotinylation))
T2 construct: also called Bio-human-PAR2 ECD; human PAR2 ECD; not shown: N-terminal AviTag (Avidity LLC); C-terminal Flag and poly Histidine tags
Experiment: HTRF competition with Par0067 IgG, pH 7.4, scFv
Method: (§1) 5 μl/well of the appropriate pH 4.44 nM Par0067 IgG solution was added to all wells of the relevant assay plate (pH 7.4 and pH 6.0).
(§2) Test scFv Preparation/Addition: [0172] a) For parallel single point HTS of crude un-purified bacterial lysate scFv samples at both pH 7.4 and pH 6.0 samples were first pre-diluted to 40% of their neat concentration using either pH 7.4 or pH 6.0 assay buffer as appropriate. Subsequently 5 μl of 40% pre-diluted sample was then transferred into the appropriate assay (pH 7.4 or pH 6.0) in order to give a final assay sample concentration of 10.0% (in the 20 μl final assay volume). The parent Par0067 scFv was included in all HTS experiments as a control as were specific pH dependent antibodies as those became available (for benchmarking). […] Duplicate 11 point 1:3 serial dilutions then were prepared on 384 well polypropylene Greiner plates in each of the two assay buffers (pH 7.4 & 6.0). 5 μl per well of each serial dilution was transferred from the relevant pH scFv dilution plate to the corresponding assay plate (pH 7.4 and pH 6.0). 5 μl of the appropriate pH assay buffer was added to the total and non-specific wells. The parent Par0067 purified scFv was included in all multipoint dose response IC₅₀ experiments as a control as were specific pH dependent purified scFv as those became available (for benchmarking).
(§3) For multipoint dose response curves % Specific Binding values were plotted versus test purified antibody concentration (scFv or IgG). IC₅₀ values were determined via a sigmoidal dose response inhibition variable slope curve fit (4 parameter logistic equation) using Graphpad Prism Software.

T2 sequence (P55085 26-75): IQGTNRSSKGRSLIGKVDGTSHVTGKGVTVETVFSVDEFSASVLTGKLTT

Binder | IC50 [nM]
B1 | 12.9
B2 | 3.3
B3 | 21.7
B4 | 147
B5 | 29.1
B6 | 74.4
B7 | 27.9
B8 | 5.3
B9 | 20.3
B10 | 42.7
B11 | 313

Target: T2, recombinant biotinylated human PAR2 …
Experiment: Biacore SPR 25 C, pH 7.4
Method: (§4) The experiments were carried out using recombinant human, rat and cynomolgus PAR2 with an N-terminal Avi tag and C-terminal Flag-His tags.
(§5) Streptavidin was covalently immobilised to a C1 chip surface using standard amine coupling techniques at a concentration of 4 μg/ml in 10 mM Sodium acetate pH 4.5. A final streptavidin surface of approximately 30-100 RUs was achieved. Recombinant biotinylated PAR2 species (produced in-house) were titrated onto the streptavidin chip surface at 4 μg/ml in HBS-EP+ buffer to enable Fab binding at saturation (Rₘₐₓ). This low level of analyte binding ensured minimal mass transport effects.
(§6) The anti-PAR2 Fabs were serially diluted (0.39 nM-25 nM) in HBS-EP+ buffer pH 7.4 or MES-BS-EP+ pH 6.0 buffer or in MES-BS-EP+ pH 5.6 buffer and flowed over the chip at 50 μl/min, with 3 minutes association and up to 30 minutes dissociation. Multiple buffer-only injections were made under the same conditions to allow for double reference subtraction of the final sensorgram sets, which were analysed using the BiaEval software (version 2.0.1). The chip surface was fully regenerated with pulses of 4 M MgCl₂.

Binder | Kd [nM] | koff [s⁻¹] | kon [M⁻¹ s⁻¹]
B12 | 0.0075 | 4.96e-05 | 6.66e+06
B13 | 0.613 | 0.00365 | 5.95e+06
B14 | 0.0325 | 0.000111 | 3.52e+06
B15 | 0.247 | 0.00137 | 5.54e+06

Target: T1, recombinant biotinylated rat PAR2 …
Experiment: Biacore SPR 25 C, pH 7.4
Method: as §4, §5, §6

Binder | Kd [nM] | koff [s⁻¹] | kon [M⁻¹ s⁻¹]
B12 | 0.0376 | 0.000194 | 5.16e+06
B13 | 3.02 | 0.0196 | 6.49e+06
B14 | 0.184 | 0.000558 | 3.04e+06
B15 | 2.61 | 0.0146 | 5.62e+06

Target: T2, recombinant biotinylated human PAR2 …
Experiment: HTRF competition with Par0067 IgG, scFv
Method: as §1, §2, §3

Binder | Fold IC50 (pH 6.0 v pH 7.4) [fold] | Fold IC50 pH 7.4 (Variant v Par0067) [fold]
B1 | 4.8 | 3.9
B2 | 1.1 | 1
B3 | 9.3 | 6.6
B4 | 3.4 | 44.5
B5 | 5.1 | 8.8
B6 | 6.7 | 22.5
B7 | 7.3 | 8.5
B8 | 2.6 | 1.6
B9 | 3.4 | 6.2
B10 | 10.9 | 12.9
B11 | 3.8 | 94.8

Target: T2, recombinant biotinylated human PAR2 …
Experiment: HTRF competition with Par0067 IgG, pH 6.0, scFv
Method: as §1, §2, §3

Binder | IC50 [nM]
B1 | 62.4
B2 | 3.6
B3 | 202
B4 | 496
B5 | 149
B6 | 496
B7 | 204
B8 | 13.7
B9 | 69
B10 | 464
B11 | 1190

Target: T2, recombinant biotinylated human PAR2 …
Experiment: Biacore SPR 25 C, pH 6.0
Method: as §4, §5, §6

Binder | Kd [nM] | koff [s⁻¹] | kon [M⁻¹ s⁻¹]
B12 | 0.0312 | 9.72e-05 | 3.12e+06
B13 | 20.1 | 0.0457 | 2.22e+06
B14 | 1.8 | 0.000607 | 336000
B15 | 6.05 | 0.021 | 3.48e+06

Target: T1, recombinant biotinylated rat PAR2 …
Experiment: Biacore SPR 25 C, pH 6.0
Method: as §4, §5, §6

Binder | Kd [nM] | koff [s⁻¹] | kon [M⁻¹ s⁻¹]
B12 | 0.17 | 0.000544 | 3.21e+06
B13 | 38.5 | 0.0689 | 1.79e+06
B14 | 10.2 | 0.00542 | 531000
B15 | 34 | 0.281 | 8.26e+06
